From article PMC3064781 (Nucleic Acids Research, 2010) come the findings set out here.

This data set deals with the molecule itself. Put plainly: crystal structure.

B1: Nep1 from Archaeoglobus fulgidus (enzyme)
chain: MGSAFVFLEASLELIPQKIRGHPAVRADAIRRGKRPEKILLDDSKHHTAMKSLEFREKRGRPDIVHQCLLLLLDSPLRDFEVYVHTLNGEIIWVNRETRLPRNYNRFVGLMEKLFEERRITAGDTTLIEFKDVGLRDIVRGRDVLLFREKGGRFEFSELLDGDVAVCIGAFPHGDFFEETLRELGEFKEVSLGTESYTSLYVTSRVLCEYERVRAHKVG
As for B1, the binding result was “binds”.
